Experimental findings from publication PMC6639327, “PLPP/CIN-mediated NEDD4-2 S448 dephosphorylation regulates neuronal excitability via GluA1 ubiquitination” (Cell Death & Disease, 2019) are described below.

Assay [1] concerns the target Neuronal precursor cell expressed developmentally downregulated 4-2 (NEDD4-2) (mouse (endogenous in hippocampus)) (UniProt Q8CFI0). Description: co-IP; mouse hippocampal tissue lysed in RIPA buffer with protease and phosphatase inhibitors; equal protein incubated with NEDD4-2, ubiquitin or GluA1 antibody and protein G sepharose at 4 °C overnight; western blot; WT, PLPP/CIN^-/- and PLPP/CIN^Tg mice, saline or KA (25 mg/kg, 2 h), control or NEDD4-2 siRNA. (A western blot detects proteins with antibodies after separation by electrophoresis.)

For assay [2], the target named is T1, full-length recombinant human NEDD4-2, phosphorylated by SGK1 (human, UniProt Q96PU5 1-975, phosphorylated by incubation with 200 U/μl SGK1 and 100 μM ATP (S342 and S448 phosphorylation followed by western blot)).
T1 construct: human NEDD4-2, full-length recombinant protein (Abcam); SGK1 and ATP were still in the sample when PLPP/CIN was added; source: bought: Abcam; phosphorylated in vitro with SGK1 (SignalChem) and ATP
T1 sequence (looked up): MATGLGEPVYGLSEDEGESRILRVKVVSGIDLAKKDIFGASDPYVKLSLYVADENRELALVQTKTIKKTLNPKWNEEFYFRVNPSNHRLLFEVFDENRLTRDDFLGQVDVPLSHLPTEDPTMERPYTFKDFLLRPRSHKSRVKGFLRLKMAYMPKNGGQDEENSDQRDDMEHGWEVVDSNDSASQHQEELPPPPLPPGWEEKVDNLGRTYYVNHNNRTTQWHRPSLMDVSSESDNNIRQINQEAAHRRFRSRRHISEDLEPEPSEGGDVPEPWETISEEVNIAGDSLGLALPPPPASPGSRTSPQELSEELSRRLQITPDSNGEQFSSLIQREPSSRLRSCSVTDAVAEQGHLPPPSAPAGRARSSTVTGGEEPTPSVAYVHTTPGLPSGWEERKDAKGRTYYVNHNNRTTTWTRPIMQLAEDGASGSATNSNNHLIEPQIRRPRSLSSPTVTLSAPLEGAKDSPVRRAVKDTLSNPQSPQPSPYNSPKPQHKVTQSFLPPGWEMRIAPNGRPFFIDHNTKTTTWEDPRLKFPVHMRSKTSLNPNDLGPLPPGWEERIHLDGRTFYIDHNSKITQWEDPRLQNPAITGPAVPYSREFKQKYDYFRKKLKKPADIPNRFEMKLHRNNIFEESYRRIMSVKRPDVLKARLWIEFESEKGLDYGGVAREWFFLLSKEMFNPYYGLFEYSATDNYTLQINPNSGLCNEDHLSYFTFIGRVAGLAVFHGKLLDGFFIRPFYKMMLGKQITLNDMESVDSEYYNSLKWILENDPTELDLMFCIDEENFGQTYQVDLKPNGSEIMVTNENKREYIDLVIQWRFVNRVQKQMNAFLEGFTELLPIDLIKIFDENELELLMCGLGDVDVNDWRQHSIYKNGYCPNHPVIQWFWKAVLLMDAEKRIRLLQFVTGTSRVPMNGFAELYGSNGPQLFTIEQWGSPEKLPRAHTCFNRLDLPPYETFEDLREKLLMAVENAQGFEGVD
In words: co-IP; in vitro with recombinant proteins: NEDD4-2 (10 ng/μl) phosphorylated with 200 U/μl SGK1 and 100 μM ATP in kinase assay buffer I at 30 °C for 1 h, then PLPP/CIN (10 ng/μl) added, 30 °C for 1 h; coprecipitation and western blot. The conditions noted are these: both partners purified.

Assay [3] concerns the target T2, Neuronal precursor cell expressed developmentally downregulated 4-2 (NEDD4-2) (mouse (endogenous in hippocampus), UniProt Q8CFI0 1-1004).
T2 construct: NEDD4-2 E3 ubiquitin ligase, endogenous in mouse hippocampus; S222 and S328 in murine NEDD4-2; source: endogenous, mouse hippocampal tissue lysate (RIPA buffer)
T2 sequence (looked up): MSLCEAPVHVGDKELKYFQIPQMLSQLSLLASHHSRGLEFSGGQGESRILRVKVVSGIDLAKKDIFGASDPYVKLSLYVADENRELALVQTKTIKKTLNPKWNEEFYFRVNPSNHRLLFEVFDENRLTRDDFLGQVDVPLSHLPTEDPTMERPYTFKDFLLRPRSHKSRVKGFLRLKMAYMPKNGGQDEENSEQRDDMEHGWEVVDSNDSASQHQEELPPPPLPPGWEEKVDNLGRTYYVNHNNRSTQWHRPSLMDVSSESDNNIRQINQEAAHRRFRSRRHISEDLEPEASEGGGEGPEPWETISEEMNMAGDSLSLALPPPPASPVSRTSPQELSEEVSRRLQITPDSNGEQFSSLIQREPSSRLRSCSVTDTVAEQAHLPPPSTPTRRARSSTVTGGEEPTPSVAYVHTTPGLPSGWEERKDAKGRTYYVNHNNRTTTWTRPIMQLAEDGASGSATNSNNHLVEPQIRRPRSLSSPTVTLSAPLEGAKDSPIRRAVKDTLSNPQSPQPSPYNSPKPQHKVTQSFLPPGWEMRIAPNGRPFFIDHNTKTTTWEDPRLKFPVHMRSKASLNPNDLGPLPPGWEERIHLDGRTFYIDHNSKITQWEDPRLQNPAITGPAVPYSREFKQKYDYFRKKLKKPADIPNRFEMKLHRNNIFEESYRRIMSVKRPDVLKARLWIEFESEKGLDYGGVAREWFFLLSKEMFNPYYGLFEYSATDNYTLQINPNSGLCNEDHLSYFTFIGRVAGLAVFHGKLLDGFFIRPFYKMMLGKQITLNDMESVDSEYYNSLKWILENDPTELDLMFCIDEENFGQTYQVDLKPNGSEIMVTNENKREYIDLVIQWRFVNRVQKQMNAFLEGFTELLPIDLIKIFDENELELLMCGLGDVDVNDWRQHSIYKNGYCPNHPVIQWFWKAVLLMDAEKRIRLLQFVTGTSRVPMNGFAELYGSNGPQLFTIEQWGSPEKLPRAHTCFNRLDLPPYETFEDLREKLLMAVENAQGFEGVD
In words: co-IP; mouse hippocampal tissue lysed in RIPA buffer with protease and phosphatase inhibitors; equal protein incubated with NEDD4-2, ubiquitin or GluA1 antibody and protein G sepharose at 4 °C overnight; western blot; WT, PLPP/CIN^-/- and PLPP/CIN^Tg mice, saline or KA (25 mg/kg, 2 h), control or NEDD4-2 siRNA. The conditions noted are these: partners not purified.

In turn, “PLPP/CIN in PLPP/CIN transgenic (PLPP/CIN^Tg) mice (from UniProt P60487 1-292)” had a fold of the binding in WT mice in assay [1] of 1.4 fold.

B1: recombinant human PLPP/CIN protein (enzyme, UniProt Q96GD0 1-296, looked up)
chain: MARCERLRGAALRDVLGRAQGVLFDCDGVLWNGERAVPGAPELLERLARAGKAALFVSNNSRRARPELALRFARLGFGGLRAEQLFSSALCAARLLRQRLPGPPDAPGAVFVLGGEGLRAELRAAGLRLAGDPSAGDGAAPRVRAVLVGYDEHFSFAKLREACAHLRDPECLLVATDRDPWHPLSDGSRTPGTGSLAAAVETASGRQALVVGKPSPYMFECITENFSIDPARTLMVGDRLETDILFGHRCGMTTVLTLTGVSRLEEAQAYLAAGQHDLVPHYYVESIADLTEGLED
notes: human pyridoxal-5'-phosphate phosphatase/chronophin, recombinant protein (Abcam); The sentence reads 'full-length recombinant human NEDD4-2 (Abcam, UK) and human PLPP/CIN proteins'; whether 'full-length' also covers PLPP/CIN is not clear; source: bought: Abcam
For B1, the binding result in assay [2] is listed as “binds”.

B2: Pyridoxal-5'-phosphate phosphatase/chronophin (PLPP/CIN) (enzyme, mouse (endogenous in hippocampus), UniProt P60487 1-292, looked up)
chain: MARCERLRGAALRDVLGQAQGVLFDCDGVLWNGERIVPGAPELLQRLARAGKNTLFVSNNSRRARPELALRFARLGFAGLRAEQLFSSALCAARLLRQRLSGPPDASGAVFVLGGEGLRAELRAAGLRLAGDPGEDPRVRAVLVGYDEQFSFSRLTEACAHLRDPDCLLVATDRDPWHPLSDGSRTPGTGSLAAAVETASGRQALVVGKPSPYMFQCITEDFSVDPARTLMVGDRLETDILFGHRCGMTTVLTLTGVSSLEEAQAYLTAGQRDLVPHYYVESIADLMEGLED
notes: Pyridoxal-5'-phosphate phosphatase/chronophin, endogenous in the hippocampus of WT mice; source: endogenous, mouse hippocampal tissue lysate (RIPA buffer)
Regarding B2, the “fold of control level (2 h after KA, WT mice)” value in assay [3] is roughly 1.4 fold.
